Positions count from the first letter of the chain named.
Experiments:
Assay in all cases: SEC-MALS; co-purified complexes at >1 mg/ml on Superdex 200 Increase 10/300 GL in 20 mM Tris pH 8.0, 150 mM KCl, 2 mM DTT; in Fig. 1 core at 200 uM and full-length at 100 uM (4 mg/ml)
Conditions in all cases: both partners purified
[1] = target: T1, SYCE2 core (amino-acids 57-165) (human, UniProt Q6PIF2 57-165)
T1 construct: SYCE2, human, core, residues 57-165; also called SYCE2 structural core; source: E. coli BL21 (DE3), co-expressed with TEX12, purified (Ni-NTA, amylose, ion exchange, SEC); not shown: MBP, N-terminal, cleaved
T1 sequence (looked up): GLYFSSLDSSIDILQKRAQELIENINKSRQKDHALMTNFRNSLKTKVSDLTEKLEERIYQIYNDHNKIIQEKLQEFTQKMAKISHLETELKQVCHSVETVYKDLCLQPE

[2] = target: T2, SYCE2 core ΔS2C (amino-acids 57-154) (human, UniProt Q6PIF2 57-154)
T2 construct: SYCE2, human, ΔS2C, residues 57-154; source: E. coli BL21 (DE3), co-expressed with TEX12, purified (Ni-NTA, amylose, ion exchange, SEC); not shown: MBP, N-terminal, cleaved
T2 sequence (looked up): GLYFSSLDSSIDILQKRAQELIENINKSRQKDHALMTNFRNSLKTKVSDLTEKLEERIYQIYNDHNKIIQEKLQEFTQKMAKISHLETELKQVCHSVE

SYCE2 core H89E Y115E = target: T3, SYCE2 core H89E Y115E (human, UniProt Q6PIF2 57-165, H89E | Y115E)
T3 construct: SYCE2, human, core, residues 57-165, with H89E and Y115E; source: E. coli BL21 (DE3), co-expressed with TEX12, purified (Ni-NTA, amylose, ion exchange, SEC); not shown: MBP, N-terminal, cleaved
T3 sequence (looked up): T1 sequence (looked up) with H33E, Y59E

[3] = target: T4, SYCE2 core V149E V153E V156E L160E (human, UniProt Q6PIF2 57-165, V149E | V153E | V156E | L160E)
T4 construct: SYCE2, human, core, residues 57-165, with V149E, V153E, V156E and L160E; The four mutations are read as combined in one construct (one mass is printed for it); also called V149E, V153E, V156E and L160E mutant; S2C hydrophobic core mutant; source: E. coli BL21 (DE3), co-expressed with TEX12, purified (Ni-NTA, amylose, ion exchange, SEC); not shown: MBP, N-terminal, cleaved
T4 sequence (looked up): T1 sequence (looked up) with V93E, V97E, V100E, L104E

- stoichiometry N [1]: 1 TEX12 per SYCE2 (4:4)
- stoichiometry N [2]: 1 TEX12 per SYCE2 (2:2)
- stoichiometry N (SYCE2 core H89E Y115E): 1 TEX12 per SYCE2 (2:2)
- stoichiometry N [3]: 1 TEX12 per SYCE2 (2:2)
B1: TEX12 core (amino-acids 49-123) (domain or fragment, human, UniProt Q9BXU0 49-123, looked up)
chain: KDEALEKDLNDVSKEINLMLSTYAKLLSERAAVDASYIDEIDELFKEANAIENFLIQKREFLRQRFTVIANTLHR
notes: TEX12, human, core, residues 49-123; also called TEX12 structural core; source: E. coli BL21 (DE3), co-expressed with SYCE2, purified (Ni-NTA, amylose, ion exchange, SEC); not shown: His6, N-terminal, cleaved
